Test results from patent publication US20240368283A1.

How the values were obtained:
human FcγRIIβ (human) = human FcγRIIβ (human) (UniProt P31994); test: SPR, antibody captured on ProA/G HC30M chip, recombinant human FcγRIIβ injected (4 nM-5 uM); average kinetic KD
Hu FcγRIIA_H131 (human) = Hu FcγRIIA_H131 (human) (UniProt P12318); test: SPR-type chip kinetics; antibody captured on protein A/G chip, receptor as analyte
Hu FcγRIIA_R131 (human) = Hu FcγRIIA_R131 (human) (UniProt P12318); test: as above
Sequence of Hu FcγRIIA_R131 (human) (P12318 36-218 H167R limits assumed): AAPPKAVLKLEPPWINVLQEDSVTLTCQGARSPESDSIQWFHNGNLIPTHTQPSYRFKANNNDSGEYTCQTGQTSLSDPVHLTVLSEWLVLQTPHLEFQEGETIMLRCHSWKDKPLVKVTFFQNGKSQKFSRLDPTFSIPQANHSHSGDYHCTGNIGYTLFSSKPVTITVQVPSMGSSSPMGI

Sequence of Hu FcγRIIA_H131 (human) (P12318 36-218 limits assumed): as the sequence (P12318 36-218 H167R limits assumed) above, with R132H counted along it
Sequence of human FcγRIIβ (human) (P31994 46-217 limits assumed): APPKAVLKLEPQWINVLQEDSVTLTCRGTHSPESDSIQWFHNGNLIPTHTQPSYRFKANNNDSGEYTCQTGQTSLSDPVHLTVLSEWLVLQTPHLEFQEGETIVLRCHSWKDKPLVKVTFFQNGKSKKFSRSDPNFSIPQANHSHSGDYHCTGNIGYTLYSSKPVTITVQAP

Kd (human FcγRIIβ (human)) [µM]	Kd (Hu FcγRIIA_H131 (human)) [µM]	Kd (Hu FcγRIIA_R131 (human)) [µM]	Substance
0.000407			2B6 (antibody)
	1	1.55	IgG1 WT (antibody)
